Assay [1] deals with purified bovine cation-independent mannose 6-phosphate receptor (CI-MPR) (bovine) (UniProt P08169). Nature of the assay: plate assay: conditioned medium on immobilized bovine CI-MPR, bound enzyme by 4-MU activity.
Assay [2] shares this target. Nature of the assay: plate assay: conditioned medium on immobilized bovine CI-MPR, bound enzyme by 4-MU activity, linear range points.

The values below come from patent US20220380800A1.

UniProt P08169, sequence (P08169 45-2313 limits assumed): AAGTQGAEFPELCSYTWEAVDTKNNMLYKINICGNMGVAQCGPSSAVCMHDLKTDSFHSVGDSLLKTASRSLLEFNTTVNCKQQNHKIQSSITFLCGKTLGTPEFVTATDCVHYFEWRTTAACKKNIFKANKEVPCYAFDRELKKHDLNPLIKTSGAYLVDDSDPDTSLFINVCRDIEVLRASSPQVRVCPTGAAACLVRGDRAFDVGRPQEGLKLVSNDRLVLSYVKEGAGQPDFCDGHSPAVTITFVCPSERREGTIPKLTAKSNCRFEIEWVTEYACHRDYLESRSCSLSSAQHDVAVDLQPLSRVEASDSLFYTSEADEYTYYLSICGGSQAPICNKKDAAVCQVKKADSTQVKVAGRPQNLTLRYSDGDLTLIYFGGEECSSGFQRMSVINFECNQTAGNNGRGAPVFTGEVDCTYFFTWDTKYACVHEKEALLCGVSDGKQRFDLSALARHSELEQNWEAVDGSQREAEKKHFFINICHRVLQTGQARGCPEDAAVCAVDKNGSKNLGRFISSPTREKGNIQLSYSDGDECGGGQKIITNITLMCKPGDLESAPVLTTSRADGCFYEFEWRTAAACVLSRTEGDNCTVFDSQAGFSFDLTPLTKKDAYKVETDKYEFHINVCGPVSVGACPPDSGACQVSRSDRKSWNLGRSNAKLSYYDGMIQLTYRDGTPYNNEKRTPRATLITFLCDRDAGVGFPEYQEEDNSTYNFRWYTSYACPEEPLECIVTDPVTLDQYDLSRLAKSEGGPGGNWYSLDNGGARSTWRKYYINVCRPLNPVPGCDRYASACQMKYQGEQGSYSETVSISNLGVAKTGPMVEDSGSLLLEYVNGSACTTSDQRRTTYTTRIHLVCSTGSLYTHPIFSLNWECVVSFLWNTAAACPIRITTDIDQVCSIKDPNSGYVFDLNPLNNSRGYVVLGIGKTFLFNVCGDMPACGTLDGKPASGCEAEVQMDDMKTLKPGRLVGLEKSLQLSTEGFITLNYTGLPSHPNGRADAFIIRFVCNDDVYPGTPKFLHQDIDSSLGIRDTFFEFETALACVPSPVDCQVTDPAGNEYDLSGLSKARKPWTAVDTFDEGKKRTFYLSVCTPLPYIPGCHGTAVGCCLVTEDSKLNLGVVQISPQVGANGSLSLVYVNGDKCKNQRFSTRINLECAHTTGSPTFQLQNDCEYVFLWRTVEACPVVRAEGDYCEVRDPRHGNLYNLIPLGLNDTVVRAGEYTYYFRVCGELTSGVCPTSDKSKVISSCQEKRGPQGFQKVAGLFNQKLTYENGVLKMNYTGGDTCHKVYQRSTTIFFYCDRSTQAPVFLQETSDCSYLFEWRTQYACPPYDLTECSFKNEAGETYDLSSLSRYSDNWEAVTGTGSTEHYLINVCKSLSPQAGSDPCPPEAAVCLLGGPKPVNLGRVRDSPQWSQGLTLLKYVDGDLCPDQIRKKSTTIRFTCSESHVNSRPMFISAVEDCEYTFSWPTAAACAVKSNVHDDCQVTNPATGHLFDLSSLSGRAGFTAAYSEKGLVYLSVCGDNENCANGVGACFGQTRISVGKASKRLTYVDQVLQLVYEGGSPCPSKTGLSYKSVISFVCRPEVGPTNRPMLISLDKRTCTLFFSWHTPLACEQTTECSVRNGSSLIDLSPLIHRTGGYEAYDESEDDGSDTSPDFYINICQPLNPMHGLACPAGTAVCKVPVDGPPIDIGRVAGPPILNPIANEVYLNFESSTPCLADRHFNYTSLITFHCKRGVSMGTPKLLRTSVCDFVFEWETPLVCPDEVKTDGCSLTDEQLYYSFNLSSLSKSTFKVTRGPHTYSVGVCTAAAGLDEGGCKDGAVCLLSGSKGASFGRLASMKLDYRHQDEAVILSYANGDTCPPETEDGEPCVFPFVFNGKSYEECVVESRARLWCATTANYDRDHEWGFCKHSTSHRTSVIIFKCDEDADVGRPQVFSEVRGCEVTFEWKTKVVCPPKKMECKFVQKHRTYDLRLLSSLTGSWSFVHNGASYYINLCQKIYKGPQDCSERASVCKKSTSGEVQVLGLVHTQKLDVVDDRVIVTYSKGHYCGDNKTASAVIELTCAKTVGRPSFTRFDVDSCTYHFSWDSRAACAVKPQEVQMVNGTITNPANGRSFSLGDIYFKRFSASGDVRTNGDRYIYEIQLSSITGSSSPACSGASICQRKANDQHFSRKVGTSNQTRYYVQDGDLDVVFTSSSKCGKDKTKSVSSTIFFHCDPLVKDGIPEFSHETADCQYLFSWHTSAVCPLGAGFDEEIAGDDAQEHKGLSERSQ

Take “human alpha-galactosidase (GLA) produced from GLA single plasmid in Expi293 cells (from UniProt P06280 32-429) (enzyme)”: the overall binding percentage in assay [1] amounted to 33.1%.
Consider “human acid beta-glucosidase (GBA) produced from GBA single expression plasmid in Expi293 cells (endogenous phosphotransferase) (from UniProt P04062 40-536) (enzyme)”, for which the percentage of receptor binding in assay [2] was 4.5%.
Turning to “human acid beta-glucosidase (GBA) produced from bicistronic plasmid pLL11 (pCMV-hGBA-IRES-S1S3) in Expi293 cells (from UniProt P04062 40-536) (enzyme)”, the percentage of receptor binding in assay [2] turned out to be 44%. Besides, the fold of percentage bound against GBA produced by endogenous phosphotransferase in assay [1] worked out at 10 fold.
In assay [1], “human alpha-galactosidase (GLA) produced from bicistronic plasmid pLL51 in Expi293 cells (from UniProt P06280 32-429) (enzyme)” registered a fold of binding percentage against GLA sample of 2 fold and an overall binding percentage of 62.1%.
In the case of “human acid beta-glucosidase (GBA) produced by co-transfection of GBA plasmid and CMV-S1S3 plasmid in Expi293 cells (from UniProt P04062 40-536) (enzyme)”, the percentage of receptor binding in assay [2] came to 43%.
